Measurements as given in US10731187B2, “Recombinant strain producing O-aminobenzoate and fermentative production of aniline from renewable resources via 2-aminobenzoic acid” (Covestro Deutschland AG, priority 2014, dated 2020).
Substitutions are numbered along the chain they refer to. Names and notes keep the numbering of the source.

What was measured:
Settings in all cases: other: raw extract (cell lysate), 25 °C, 20 mM L-glutamine, 10 mM MgCl2, chorismate as substrate
[1] = substrate: C=C(O[C@@H]1C=C(C(=O)O)C=C[C@H]1O)C(=O)O; assay: cells, lysate or membranes
[2] = substrate: C=C(O[C@@H]1C=C(C(=O)O)C=C[C@H]1O)C(=O)O; assay: Anthranilate synthase activity in cell lysate of C. glutamicum ΔtrpD/pEKEx2-trpEG^S38F (KM and vmax); type: biochemical, Corynebacterium glutamicum ATCC 13032
Source text: (§1) In more specific embodiments of the recombinant microbial host cell of invention, the Corynebacterium glutamicum microbial host cell, preferably Corynebacterium glutamicum ATCC 13032, can further overexpress one or more of the genes selected from the group consisting of galP (SEQ ID NO: 30), iolT2 (SEQ ID NO: 31), ppgk (SEQ ID NO: 32), pps (SEQ ID NO: 33-35), ppk (SEQ ID NO: 36), zwfl (SEQ ID NO: 37), opcA (SEQ ID NO: 38-39), tktCg (SEQ ID NO: 40), tktEc (SEQ ID NO: 41), talCg (SEQ ID NO: 42), tame (SEQ ID NO: 43), a gene encoding TrpEGS38F (trpEG^S38F, SEQ ID NO: 50), a gene encoding TrpEGS38R (trpEG^S38R, SEQ ID NO: 51), a gene encoding TrpEGS40R (trpEG^S40R, SEQ ID NO: 52), a gene encoding TrpEGS40F (trpEG^S40F, SEQ ID NO: 53), the gene encoding AroGD146N (aroG^D146N, SEQ ID NO: 55), aroL of Escherichia coli LJ110 (SEQ ID NO: 93), aroK (SEQ ID NO: 94), glnA (SEQ ID NO: 95), and qsuA (SEQ ID NO: 96). […]

[3] = substrate: C=C(O[C@@H]1C=C(C(=O)O)C=C[C@H]1O)C(=O)O; assay: Anthranilate synthase activity in cell lysate of C. glutamicum ΔtrpD/pEKEx2-trpEG^S38R (KM and vmax); type: biochemical, Corynebacterium glutamicum ATCC 13032
Source text: as §1

[4] = substrate: C=C(O[C@@H]1C=C(C(=O)O)C=C[C@H]1O)C(=O)O; assay: Anthranilate synthase activity in cell lysate of C. glutamicum ΔtrpD/pEKEx2-trpEG^S40F (KM and vmax); type: biochemical, E. coli
Source text: as §1

B1: Corynebacterium glutamicum ATCC 13032 TrpEG (anthranilate synthase), natural (wild type, Cgl3029/31) (Corynebacterium glutamicum ATCC 13032) (protein)
chain: MSTNPHVFSLDVRYHEDASALFAHLGGTTADDAALLESADITTKNGISSLAVLKSSVRITCTGNTVVTQPLTDSGRAVVARLTQQLGQYNTAENTFSFPASDAVDERERLTAPSTIEVLRKLQFESGYSDASLPLLMGGFAFDFLETFETLPAVEESVNTYPDYQFVLAEIVLDINHQDQTAKLAGVSNAPGELEAELNKLSLLIDAALPATEHAYQTTPHDGDTLRVVADIPDAQFRTQINELKENIYNGDIYQVVPARTFTAPCPDAFAAYLQLRATNPSPYMFYIRGLNEGRSYELFGASPESNLKFTAANRELQLYPIAGTRPRGLNPDGSINDELDIRNELDMRTDAKEIAEHTMLVDLARNDLARVSVPASRRVADLLQVDRYSRVMHLVSRVTATLDPELDALDAYRACMNMGTLTGAPKLRAMELLRGVEKRRRGSYGGAVGYLRGNGDMDNCIVIRSAFVQDGVAAVQAGAGVVRDSNPQSEADETLHKAYAVLNAIALAAGSTLEVIR
Work on B1 yielded a Km [1] of 11.4 µmol and a Vmax [1] of 0.0127 µmol/min/mg.

B2: Corynebacterium glutamicum TrpEG (anthranilate synthase) variant TrpEGS38F, mutation S38F (SEQ ID NO: 50 in b85; SEQ ID No. 52-53 in b196) (Corynebacterium … (protein)
chain: B1 chain with S38F
Work on B2 yielded a Km [2] of 16.2 µmol and a Vmax [2] of 0.0688 µmol/min/mg.

B3: Corynebacterium glutamicum TrpEG (anthranilate synthase) variant TrpEGS38R, mutation S38R (SEQ ID NO: 51 in b85; SEQ ID No. 52-53 in b196) (Corynebacterium … (protein)
chain: B1 chain with S38R
For B3, the Km [3] was 21.6 µmol and the Vmax [3] was 0.231 µmol/min/mg.

B4: E. coli TrpEG (anthranilate synthase) variant TrpEGS40F, mutation S40F (SEQ ID NO: 53 in b85; SEQ ID No. 50-51 in b196) (Escherichia coli K-12; S40F) (protein)
chain: MQTQKPTLELLTCEGAYRDNPTALFHQLCGDRPATLLLEFADIDSKDDLKSLLLVDSALRITALGDTVTIQALSGNGEALLALLDNALPAGVESEQSPNCRVLRFPPVSPLLDEDARLCSLSVFDAFRLLQNLLNVPKEEREAMFFGGLFSYDLVAGFEDLPQLSAENNCPDFCFYLAETLMVIDHQKKSTRIQASLFAPNEEEKQRLTARLNELRQQLTEAAPPLPVVSVPHMRCECNQSDEEFGGVVRLLQKAIRAGEIFQVVPSRRFSLPCPSPLAAYYVLKKSNPSPYMFFMQDNDFTLFGASPESSLKYDATSRQIEIYPIAGTRPRGRRADGSLDRDLDSRIELEMRTDHKELSEHLMLVDLARNDLARICTPGSRYVADLTKVDRYSYVMHLVSRVVGELRHDLDALHAYRACMNMGTLSGAPKVRAMQLIAEAEGRRRGSYGGAVGYFTAHGDLDTCIVIRSALVENGIATVQAGAGVVLDSVPQSEADETRNKARAVLRAIATAHHAQETF
For B4, the Vmax [4] was 0.427 µmol/min/mg.
